This passage reports production of Aβ in the HEK293T cells (times the level of wild type APP695) results from patent US20030200555A1.

The target in the assay is APP695-derived polypeptide (SEQ.ID.NO.: 28) having the modified sequence NLDV (SEQ.ID.NO.: 7) (human) (UniProt P05067). As to the kind of experiment: cell-based or functional assay.

The substance “β-secretase (of the HEK293T cells in which the APP β-site mutants were expressed) (from UniProt P56817 46-501) (enzyme)” gave a production of Aβ in the HEK293T cells (times the level of wild type APP695) of 3.
